Patent US20180201672A1 (ACADEMIA SINICA, published 2018)
One block for each binder: values may come before it.

Biological target: T1, interleukin-17 receptor B (IL-17RB), human, endogenous or ectopic full-length on cells (human, UniProt Q9NRM6 18-502)
T1 construct: In the assays the protein stood on human cancer cell lines or tissue sections; also called native IL-17RB; endogenous IL-17RB
T1 sequence: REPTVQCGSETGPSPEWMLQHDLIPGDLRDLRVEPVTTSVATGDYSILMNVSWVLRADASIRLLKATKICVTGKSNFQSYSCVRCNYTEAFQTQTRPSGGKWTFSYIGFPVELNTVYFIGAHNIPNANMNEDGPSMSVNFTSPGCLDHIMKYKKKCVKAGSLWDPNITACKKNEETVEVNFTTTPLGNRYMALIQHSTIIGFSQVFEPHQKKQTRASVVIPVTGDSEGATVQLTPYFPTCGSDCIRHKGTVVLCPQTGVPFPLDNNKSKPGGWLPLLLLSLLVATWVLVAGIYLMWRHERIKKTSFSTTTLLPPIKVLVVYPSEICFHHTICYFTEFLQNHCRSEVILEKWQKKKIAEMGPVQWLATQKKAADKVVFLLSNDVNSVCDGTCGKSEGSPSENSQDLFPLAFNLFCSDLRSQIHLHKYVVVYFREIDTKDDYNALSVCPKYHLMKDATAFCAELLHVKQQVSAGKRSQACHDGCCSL
Assay: FACS on IL-17RB expressing pancreatic cancer cell lines (CFPAC-1 WT and KO, HPAF-II; MCF10A negative control)
Experimental: FIG. 9. Specificity and Binding Efficiency of anti-IL17RB chimeric D9 antibody (cD9). A, the specific recognition of mouse and chimeric D9 antibody to IL-17RB was determined by FACS analysis using IL-17RB expression (WT) and IL-17RB knock-out (KO) pancreatic cancer cell line CFPAC-1. The FACS profiling of no antibody (no staining) or secondary antibody only (2nd Ab only) were served as control. B, the recognition efficiency of mouse and chimeric D9 antibody was measured by FACS analysis using IL-17RB expression pancreatic cancer cell lines, CFPAC-1 and HPAF-II. MCF10A with no IL-17RB expression was served as negative control.

binding result: binds
B1: chimeric monoclonal anti-IL-17RB antibody cD9 (antibody, V domains shown)
VH: EVQLQQSGPELVKPGASVKISCKTSGYTFTEYTIHWVKQNHGKSLDWIGGINPNNGGTTYNQEFKGKATLTVDKSSSTAYMEFRSLTSEDSAVYYCARSYYGYVDYWGQGTTLTAA
VL: QIVLTQSPAIMSASPGEKVTMTCSASSSIYYIHWYQQKSGTSPKRWIYDTSKLASGVPARFSGSGSGTSYSLTISSMEAEDAATYYCQQWSSNPFTFGSGTKLEIK
notes: also called chimeric D9 antibody; mAb cD9

binding result: binds
B2: mouse monoclonal anti-IL-17RB antibody D9 (antibody, V domains shown)
VH: B1 VH
VL: B1 VL
notes: Mouse monoclonal antibody from a hybridoma, raised against recombinant IL-17RB extracellular domain (amino acids 18-289) made in HEK293 cells; also called mAb D9; mAbD9
